Numbering of substitutions follows the chain as printed.
T1: T-STAR STAR (UniProt O75525 1-183)
T1 sequence: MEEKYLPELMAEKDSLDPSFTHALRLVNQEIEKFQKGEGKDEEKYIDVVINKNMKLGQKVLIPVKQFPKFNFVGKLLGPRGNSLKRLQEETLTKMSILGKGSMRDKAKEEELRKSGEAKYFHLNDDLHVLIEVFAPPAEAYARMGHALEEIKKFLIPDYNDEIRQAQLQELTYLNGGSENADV

T2: T-STAR QUA1-KH (UniProt O75525 1-160)
T2 sequence: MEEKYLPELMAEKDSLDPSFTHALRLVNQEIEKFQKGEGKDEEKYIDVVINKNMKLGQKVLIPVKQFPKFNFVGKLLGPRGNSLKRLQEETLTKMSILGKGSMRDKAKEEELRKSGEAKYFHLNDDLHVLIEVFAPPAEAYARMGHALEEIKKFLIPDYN

T3: T-STAR QUA1-KH Y141E (UniProt O75525 1-160, Y141E)
T3 sequence: T2 sequence with Y141E

T4: T-STAR STAR Y141E (UniProt O75525 1-183, Y141E)
T4 sequence: T1 sequence with Y141E

T5: T-STAR KH (UniProt O75525 50-160)
T5 sequence: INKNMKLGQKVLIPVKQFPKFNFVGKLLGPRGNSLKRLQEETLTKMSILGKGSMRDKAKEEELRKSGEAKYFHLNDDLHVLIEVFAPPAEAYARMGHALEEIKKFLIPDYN

T6: T-STAR KH-QUA2 (UniProt O75525 50-183)
T6 sequence: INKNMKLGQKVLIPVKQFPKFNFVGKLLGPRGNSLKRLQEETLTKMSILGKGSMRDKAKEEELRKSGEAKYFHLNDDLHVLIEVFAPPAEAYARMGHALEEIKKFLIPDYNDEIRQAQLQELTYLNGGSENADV

B1: Sam68 STAR domain (amino acids 97-283) (domain or fragment, human, UniProt Q07666 97-283, looked up)
chain: MEPENKYLPELMAEKDSLDPSFTHAMQLLTAEIEKIQKGDSKKDDEENYLDLFSHKNMKLKERVLIPVKQYPKFNFVGKILGPQGNTIKRLQEETGAKISVLGKGSMRDKAKEEELRKGGDPKYAHLNMDLHVFIEVFGPPCEAYALMAHAMEEVKKFLVPDMMDDICQEQFLELSYLNGVPEPSRG
notes: Sam68 (Src-associated protein in mitosis of 68 kDa), human, STAR domain (QUA1, KH, QUA2), residues 97-283; also called Src-associated protein in mitosis of 68 kDa; source: E. coli Rosetta BL21 DE3, purified (Ni-NTA, TEV cleavage, size-exclusion chromatography); not shown: His tag (inferred from the Ni-NTA purification)
B2: T-STAR KH domain (amino acids 50-160) (domain or fragment, human, UniProt O75525 50-160, looked up)
chain: T5 sequence
notes: T-STAR/SLM2, human, KH domain, residues 50-160; The free KH structure (5EL3) was phased from a SeMet-labelled KH domain; the complex with AAAUAA is 5ELS; source: E. coli Rosetta BL21 DE3, purified (Ni-NTA, TEV cleavage, size-exclusion chromatography); not shown: His tag (inferred from the Ni-NTA purification)
B3: T-STAR STAR domain (amino acids 1-183) (domain or fragment, human, UniProt O75525 1-183, looked up)
chain: T1 sequence
notes: Crystallised with AUUAAA RNA; QUA2 region not seen in the electron density; also called SLM2; source: E. coli Rosetta BL21 DE3, purified (Ni-NTA, TEV cleavage, size-exclusion chromatography); not shown: His tag (inferred from the Ni-NTA purification)
B4: T-STAR KH-QUA2 domain (amino acids 50-183) (domain or fragment, human, UniProt O75525 50-183, looked up)
chain: T6 sequence
notes: T-STAR/SLM2, human, KH and QUA2 domains, residues 50-183; Crystallised with AAUAAU RNA; QUA2 not seen in the electron density; source: E. coli Rosetta BL21 DE3, purified (Ni-NTA, TEV cleavage, size-exclusion chromatography); not shown: His tag (inferred from the Ni-NTA purification)
B5: SRE-4 (ssRNA)
RNA: UUUGGGGGUUCAAUAAAAAUUUUCACUAUCCUAUUAACAGUUCCGCCGCUCC
B6: T-STAR QUA1-KH domain (domain or fragment, human)
chain: T2 sequence
notes: T-STAR/SLM2, human, QUA1 and KH domains with the linker between them; by the limits of the STAR (1-183) and KH (50-160) constructs they may be 1-160 (surmised); source: E. coli Rosetta BL21 DE3, purified (Ni-NTA, TEV cleavage, size-exclusion chromatography); not shown: His tag (inferred from the Ni-NTA purification)

Legend:
[1] = biological target: Sam68 QUA1-KH domain (human); assay: SAXS; 25 °C, 1-20 mg/ml protein in the NMR buffers, in the absence and presence of AAAUAA RNA (10 mg/ml protein, protein/RNA 1:1); molecular weights from Porod volumes
[2] = biological target: the molecule itself; assay: as above
[3] = biological target: the molecule itself; assay: crystal structure; T-STAR constructs in complex with short RNAs (protein/RNA 1:2), sitting drop vapour diffusion at 4 °C; protein in 10 mM Tris pH 7.0, 50 mM NaCl
[4] = biological target: T1, T-STAR STAR; assay: fluorescence polarization; 10 mM Tris pH 7, 100 mM NaCl, 0.1% beta-mercaptoethanol; 0.2 uM fluorescein-labelled RNA; protein 0-200 uM; temperature not stated
[5] = biological target: T2, T-STAR QUA1-KH; assay: as above
[6] = biological target: Sam68 QUA1-KH (UniProt Q07666 97-260); assay: as above
[7] = biological target: T7, Sam68 STAR (UniProt Q07666 97-283); assay: as above
[8] = biological target: T3, T-STAR QUA1-KH Y141E; assay: as above
[9] = biological target: Sam68 QUA1-KH Y241E (UniProt Q07666 97-260, Y241E); assay: as above
[10] = biological target: T4, T-STAR STAR Y141E; assay: as above
[11] = biological target: T5, T-STAR KH; assay: X-ray crystallography; FP: 10 mM Tris pH 7, 100 mM NaCl, 0.1% beta-mercaptoethanol, 0.2 uM fluorescein-RNA, protein 0-200 uM, temperature not stated; NMR 303 K: Sam68 in 10 mM Tris pH
[12] = biological target: T1, T-STAR STAR; assay: as above
[13] = biological target: T7, Sam68 STAR; assay: NMR chemical shift perturbation; FP: 10 mM Tris pH 7, 100 mM NaCl, 0.1% beta-mercaptoethanol, 0.2 uM fluorescein-RNA, protein 0-200 uM, temperature not stated; NMR 303 K: Sam68 in 10 mM Tris pH
[14] = biological target: T6, T-STAR KH-QUA2; assay: X-ray crystallography; FP: 10 mM Tris pH 7, 100 mM NaCl, 0.1% beta-mercaptoethanol, 0.2 uM fluorescein-RNA, protein 0-200 uM, temperature not stated; NMR 303 K: Sam68 in 10 mM Tris pH
[15] = biological target: T2, T-STAR QUA1-KH; assay: as above

Row | Molecule | Kd [4] [µM] | Kd [5] [µM] | Kd [6] [µM] | also measured
1 | Sam68 QUA1-KH domain (domain or fragment) | – | – | – | stoichiometry N [1]: 2
2 | B1 | – | – | – | stoichiometry N [2]: 2
3 | B2 | – | – | – | binding result [3]: binds
4 | B3 | – | – | – | stoichiometry N [2]: 2
5 | CCCAAUUAACUAACUAACUAACUUUAAAA (ssRNA) [Nrxn2] | 1.1 | 1.7 | 2.2 | Kd [7]: 3.7 µM
6 | UUAAA (ssRNA) | – | 16 | 50 | –
7 | UAAACCC (ssRNA) | 7 | 7.9 | 50 | Kd [8]: 10.9 µM; Kd [9]: 27.1 µM; Kd [10]: 6.8 µM
8 | CUGGGUGACACACUAGCUAUAGCAUUAAAAGACCGAGCAAGU (ssRNA) [G8.5] | 11.7 | 8.1 | 10.3 | Kd [7]: 36.1 µM
9 | UAAACCCCCCCCCCCCCCCUAAA (ssRNA) [UAAA-C15-UAAA] | 6.7 | 6.8 | 26.3 | Kd [8]: 4.7 µM; Kd [9]: 4 µM; Kd [10]: 4.7 µM
10 | AAAUAA (ssRNA) | – | – | – | binding result [11]: binds
11 | AUUAAA (ssRNA) | – | – | – | binding result [12]: binds; binding result [13]: binds
12 | UCCGGAUUGGCCUAAAUAGAUGCGCGAUAAUAAUAGAGUA (ssRNA) [G7.1] | 5.4 | 4.5 | 4.3 | Kd [7]: 8.2 µM
13 | AAUAAU (ssRNA) | – | – | – | binding result [14]: binds
14 | B4 | – | – | – | binding result [3]: binds
15 | UAAU (ssRNA) | – | – | – | binding result [15]: binds
16 | AAAAA (ssRNA) | – | 6 | 13 | –
17 | UAAACCCCCCCCCCUAAA (ssRNA) [UAAA-C10-UAAA] | 7 | 8.6 | 37.3 | Kd [8]: 4.4 µM; Kd [9]: 3.9 µM; Kd [10]: 4.9 µM
18 | AUAAA (ssRNA) | – | 37 | 55 | –
19 | ACAAA (ssRNA) | – | 55 | – | –
20 | UAAACCCCCUAAA (ssRNA) [UAAA-C5-UAAA] | 5.9 | 5.5 | 42.7 | Kd [8]: 5.3 µM; Kd [9]: 4.6 µM; Kd [10]: 5.1 µM
21 | B5 | 8.5 | 9.4 | 19.1 | Kd [7]: 65.7 µM
22 | CUAAA (ssRNA) | – | 18 | 34 | –
23 | AUAAU (ssRNA) | – | 45 | 49 | –
24 | B6 | – | – | – | stoichiometry N [2]: 2
25 | AUAAC (ssRNA) | – | 47 | – | –
